These results are taken from patent US5543312.

In the test the target is glycophorin A from human erythrocytes (human) (UniProt P02724).

Chain of Pasteurella haemolytica A1 glycoprotease (enzyme from culture supernatant) (P36175 whole entry): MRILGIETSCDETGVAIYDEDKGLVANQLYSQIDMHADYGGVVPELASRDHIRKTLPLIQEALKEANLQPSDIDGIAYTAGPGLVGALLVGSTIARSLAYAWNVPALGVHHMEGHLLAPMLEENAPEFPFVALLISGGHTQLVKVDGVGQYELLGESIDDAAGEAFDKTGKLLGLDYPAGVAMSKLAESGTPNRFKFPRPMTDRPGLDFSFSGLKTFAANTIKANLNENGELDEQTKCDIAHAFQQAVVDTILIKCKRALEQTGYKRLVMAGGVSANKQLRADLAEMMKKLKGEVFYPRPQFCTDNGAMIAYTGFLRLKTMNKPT

As to “Pasteurella haemolytica A1 glycoprotease (enzyme from culture supernatant)”, the Glycoprotease Specific Activity (nmol/mg/h), cleavage of [125I]-glycophorin A was 94 nmol/mg/h.
